According to patent US20260327306 (published 2026):

Target: T1, Human NKp30 (BKM0179) (human, UniProt O14931)
T1 chain: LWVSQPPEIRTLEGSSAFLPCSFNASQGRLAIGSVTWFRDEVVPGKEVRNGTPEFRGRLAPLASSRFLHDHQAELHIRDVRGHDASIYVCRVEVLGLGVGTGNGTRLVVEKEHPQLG

B1: BKM0138 (BJM0411 VL-N95A) (antibody, V domains shown)
VH: EIQLLESGGGLVQPGGSLRLSCAVSGFSITTTGYHWNWVRQAPGKGLEWVGYIYSSGSTSYNPSLKSRFTISRDTSKNTFYLQMNSLRAEDTAVYYCARGDWHYFDYWGQGTMVTVSS
VL: DSVTTQSPLSLPVTLGQPASISCSGEKLSDKYVHWYQQRPGQSPRMLIYENDRRPSGVPDRFSGSNSGNDATLKVEAEDVGVYFCQFWDSTASAVFGGGTKVEIKI
Kd: 3.2 nM
